The target in this assay is Respiratory complex I (mouse (endogenous in mouse tissues and L929 cells)) (UniProt Q9DC69). As to the kind of experiment: Blue-DiS complexome profiling.
Sequence of UniProt Q9DC69 (Q9DC69 whole entry, looked up, one chain of several): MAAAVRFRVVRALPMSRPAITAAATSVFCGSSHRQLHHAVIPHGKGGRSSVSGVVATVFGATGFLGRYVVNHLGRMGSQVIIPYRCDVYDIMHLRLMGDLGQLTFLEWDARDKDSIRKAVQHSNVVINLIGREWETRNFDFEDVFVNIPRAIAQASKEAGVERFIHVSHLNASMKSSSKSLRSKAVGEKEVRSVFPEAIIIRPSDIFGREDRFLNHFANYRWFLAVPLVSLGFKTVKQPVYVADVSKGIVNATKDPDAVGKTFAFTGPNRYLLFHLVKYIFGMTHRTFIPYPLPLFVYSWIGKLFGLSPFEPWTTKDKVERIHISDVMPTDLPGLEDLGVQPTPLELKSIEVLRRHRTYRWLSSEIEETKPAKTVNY

Broadly, the stoichiometry N is the number of molecules, sites or subunits per partner or assembly. On to “Respiratory complex IV (from UniProt P00397 1-514)”, for which the stoichiometry N is 1 CI:CIV.

Take “Respiratory complex III dimer (from UniProt Q9DB77 15-453)”: the stoichiometry N was 2 CIII:CI.
